In patent US20250388672A1:

Tests used:
[1] = molecular target: human TCR(2IAN)/CD3 expressed on HEK293H cells (human) (UniProt P04234); assay: flow cytometry on HEK293H cells expressing human TCR(2IAN)/CD3
[2] = molecular target: human CD3 expressed on HEK293H cells (human) (UniProt P20963); assay: flow cytometry on HEK293H cells expressing human CD3
[3] = molecular target: human TCR/CD3 complex on purified primary human T cells (human); assay: flow cytometry on primary human T cells
Chain of human TCR/CD3 complex on purified primary human T cells (human) (delta, as listed by the source limits assumed, form in doubt, chain 1 of 4): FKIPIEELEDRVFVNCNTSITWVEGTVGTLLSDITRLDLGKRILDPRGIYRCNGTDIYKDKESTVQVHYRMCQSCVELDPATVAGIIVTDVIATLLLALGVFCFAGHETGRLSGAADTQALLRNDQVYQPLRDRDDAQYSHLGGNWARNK
Chain of human TCR/CD3 complex on purified primary human T cells (human) (gamma, as listed by the source limits assumed, form in doubt, chain 2 of 4): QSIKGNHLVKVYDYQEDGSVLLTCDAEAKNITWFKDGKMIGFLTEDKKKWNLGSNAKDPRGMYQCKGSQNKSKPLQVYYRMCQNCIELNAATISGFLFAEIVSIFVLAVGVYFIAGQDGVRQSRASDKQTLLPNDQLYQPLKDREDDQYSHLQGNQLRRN
Chain of human TCR/CD3 complex on purified primary human T cells (human) (epsilon, as listed by the source limits assumed, form in doubt, chain 3 of 4): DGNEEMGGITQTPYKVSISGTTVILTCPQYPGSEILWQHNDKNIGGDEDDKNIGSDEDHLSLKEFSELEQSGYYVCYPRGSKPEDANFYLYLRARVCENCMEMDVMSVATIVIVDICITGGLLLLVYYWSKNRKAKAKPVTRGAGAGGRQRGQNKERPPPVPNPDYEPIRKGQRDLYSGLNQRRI
Chain of human TCR/CD3 complex on purified primary human T cells (human) (zeta, as listed by the source limits assumed, form in doubt, chain 4 of 4): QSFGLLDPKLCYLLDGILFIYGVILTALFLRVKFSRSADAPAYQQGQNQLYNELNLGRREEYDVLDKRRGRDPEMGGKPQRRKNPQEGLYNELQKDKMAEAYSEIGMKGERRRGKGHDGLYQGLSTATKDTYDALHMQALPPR

Chain of human CD3 expressed on HEK293H cells (human) (chain, as listed by the source limits assumed, chain 1 of 4): as the sequence (delta, as listed by the source limits assumed, form in doubt, chain 1 of 4) above
Chain of human CD3 expressed on HEK293H cells (human) (chain, as listed by the source limits assumed, chain 2 of 4): as the sequence (gamma, as listed by the source limits assumed, form in doubt, chain 2 of 4) above
Chain of human CD3 expressed on HEK293H cells (human) (chain, as listed by the source limits assumed, chain 3 of 4): as the sequence (epsilon, as listed by the source limits assumed, form in doubt, chain 3 of 4) above
Chain of human CD3 expressed on HEK293H cells (human) (P20963 22-164 limits assumed, chain 4 of 4): as the sequence (zeta, as listed by the source limits assumed, form in doubt, chain 4 of 4) above

B1: T0170052G04 (VHH, not shown: small tags and cut ends)
VHH: EVQLVESGGGAVQPGGSLRLSCAASGIRISRNMMGWFRQAPGKQRDLVARITPGGDTYYVDSVKGRFSISKDNAKNTVYLQMNSLKPEDTAVYYCNSYSTLGSWGQGTQVTVSS
[1]
  EC50: > 100 nM
  MCF at 1 µM/top: 4950 MCF
[2]
  EC50: > 100 nM
  MCF at 1 µM/top: 2850 MCF

B2: T017000016 (bispecific antibody)
chain: EVQLVESGGGLVQPGGSLRLSCTFSGGTFSSYTMGWFRQAPGKEREFVAEVRWGGVTTYSNSLKDRFSISEDSVKNAVYLQMNSLKPEDTAVYYCAAVRQMYMTVVPDYWGQGTLVTVSSGGGGSGGGGSGGGGSGGGGSGGGGSGGGGSGGGGSEVQLVESGGGSVQAGGSLRLSCAASGRTFSTNPMGWFRQVPGKERELIAAVRWADGNTFYADSVKGRFTISRDNAKKTVYLQMNSLKSEDTATYYCAAGRPWSAYHSPAEYVHWGQGTLVTVSSGAADYKDHDGDYKDHDIDYKDDDDKGAAHHHHHH
[3]
  EC50: > 100 nM

B3: T0170011A10 (VHH, not shown: small tags and cut ends)
VHH: EVQLVESGGGLVQGGGSLSLSCAASGRTFSSYAMAWFRQPPGKEREFVASISWSGENTNYRNSVKGRFTISRDNAKNTVYLQMNSLKPEDTAVYYCAAKIAKTYPDNWYWTKSNNYNYWGQGTQVTVSS
[1]
  EC50: > 100 nM
  MCF at 1 µM/top: 15900 MCF
[2]
  EC50: > 100 nM
  MCF at 1 µM/top: 3300 MCF
